Source: patent publication US20060150259A1, “Model of bone disease amenable to high-throughput screening” (priority 2003, published 2006)
Entries after “also recorded” stand apart in the source; their conditions may differ.

How the values were obtained:
[1] = system: zebrafish larvae (bone formation); assay: Anabolic bone screen in zebrafish larvae; assay type: in vivo; conditions: for anabolic effects (promoting bone), dose/response: 3 d.p.f. to 8 d.p.f., range of concentrations
Protocol: A 1 mg/ml stock of parathyroid hormone (PTH) (Sigma) was made in 20 mM NaH2PO4 and 2.13g/L mannitol. A […] stock of cholecalciferol (Vitamin D)(Sigma) was made in dH2O. […]
(§1) Embryos and larvae were fixed in 4% paraformaldehyde (PFA), then labelled with alizarin red as described herein. In vivo labelling was achieved by rearing fish in 0.05% alizarin red in embryo medium.
(§2) Stained larvae were mounted on depression slides and visualised by fluorescence microscopy on a BX51 microscope (Olympus) and images were captured using a ColorView camera and AnalySis software (Olympus). The intensity of and area of alizarin red fluorescence was quantified for each treatment group, with a minimum of 5 samples per group, using colour threshold and area measurements in AnalySis (Olympus). Mean values and standard deviations were calculated using Excel software (Microsoft Office).
In addition to screening for the rescue of osteoporosis, we observed that anabolic bone effects could also be detected.

[2] = system: zebrafish larvae; assay: Toxicity / viability of zebrafish larvae in embryo medium containing compound
Protocol: For compound screening, a dose of 10 ug/ml prednisolone may be used, although other doses and durations of exposure may also be used.

[3] = system: zebrafish larvae with prednisolone-induced osteoporosis; assay: Rescue of prednisolone-induced osteoporosis with etidronate in zebrafish larvae; assay type: in vivo
Protocol: 1) Osteoporosis was induced with prednisolone as described above.
2) Etidronic acid (Sigma H6773) was made up as […] stock in embryo medium.
3) Osteoporosis was rescued by co-administration of etidronic acid and prednisolone from 3 d.p.f. to 10 d.p.f.
A 10 mg/ml stock solution of etidronate (Sigma) in embryo medium was used in all prednisolone rescue experiments. The pH of the solution was adjusted to pH 7.5 using NaOH. The stock was stored at 4° C. for a maximum of 2 months. […]. OP was induced by exposure of larvae to 10 ug/ml prednisolone from 3 d.p.f. to 6 d.p.f. At 6 d.p.f., medium containing 10 ug/ml prednisolone was removed and replaced with 10 ug/ml prednisolone in combination with etidronate.
as §1, §2
A dose/response study was performed using larvae exposed to varying doses of etidronate in the presence of prednisolone (at 10 ug/ml) from 3 d.p.f. to 9 d.p.f. Samples were stained with alizarin red and the area of stained tissue was quantified using AnalySis software. The average stained area was calculated from five samples at each concentration and plotted as a mineralization index.

[4] = system: zebrafish; assay: DMSO tolerance of zebrafish; assay type: in vivo; conditions: added to the fish water
Text: Moreover, the inventors have discovered that zebrafish are also DMSO (dimethyl sulphoxide) tolerant. This is important as DMSO is used as a solvent to dissolve many drugs. The inventors have established that zebrafish can tolerate 1% DMSO. Thus, a candidate drug or other test substance may be dissolved in DMSO and administered to zebrafish by adding to the fish water to give a final concentration of DMSO of at least up to 1%. This is employed in various preferred aspects and embodiments of the present invention.

`C=C1CC[C@H](O)C/C1=C/C=C1\CCC[C@]2(C)[C@@H]([C@H](C)CCCC(C)C)CC[C@@H]12` [Cholecalciferol, cholecalciferol, reference compound] was tested, and the “anabolic effects (promoting bone), dose/response” value [1] was “clear dose/response in relation to promoting bone”.

In the case of `CC(O)(P(=O)(O)O)P(=O)(O)O` [etidronate, Etidronic acid], the viability of larvae ([2]; 5 ug/mi etidronic acid co-administered with 10 ug/ml prednisolone) is reported as “viable beyond 10 d.p.f”, the viability of larvae ([2]; 10 ug/ml etidronate co-administered with 10 ug/ml prednisolone) is reported as “viable beyond 10 d.p.f” and the “rescue of OP phenotype in wholemount skeletal preparations (amount of staining)” value ([3]; etidronate 10 ug/ml with prednisolone 10 ug/ml) is reported as “rescue is readily observed; also recorded: clear increase in the amount of staining”. The “dose/response, fluorescence intensity in stained bones in vivo” value ([3]; increasing doses of etidronate in the presence of prednisolone) was “correlated with recovery from OP” and the “dose/response, area of stained tissue (mineralization index)” value ([3]; varying doses of etidronate with prednisolone 10 ug/ml, 3 d.p.f. to 9 d.p.f.) was “clear correlation between increasing doses of etidronate and rescue of the OP phenotype”.

For `C[S+](C)[O-]` [DMSO, dimethyl sulphoxide], the “DMSO concentration tolerated by zebrafish” value [4] was 1%.

B1: parathyroid hormone (peptide, UniProt P01270 32-115, looked up)
Parathyroid hormone: SVSEIQLMHNLGKHLNSMERVEWLRKKLQDVHNFVALGAPLAPRDAGSQRPRKKEDNVLVESHEKSLGEADKADVNVLTKAKSQ
modifications: Parathyroid hormone
notes: parathyroid hormone (PTH) (Sigma)
With B1 the Summary of effects ([1]; 40 ng/ml, Continuous, 3 d.p.f. to 8 d.p.f) was “Anabolic effect”, the Summary of effects ([1]; 100 ng/ml, Continuous, 3 d.p.f. to 8 d.p.f) was “Mild catabolic” and the Summary of effects ([1]; 200 ng/ml, Brief, 6 hours on 5 d.p.f, effects noted on 8 d.p.f.) was “Strong anabolic”. For the same molecule, the Summary of effects ([1]; 200 ng/ml, Continuous, 3 d.p.f. to 8 d.p.f) was “Strong catabolic”, the effect on bone ([1]; 200 ng/ml, administered for 6-8 hours and then removed from the medium) was “anabolic effect” and the effect on bone ([1]; 206 ng/ml, administered continuously from 3 d.p.f to 9 d.p.f.) was “catabolic effect”. For the same molecule, the “anabolic effects (promoting bone), dose/response” value [1] was “clear dose/response in relation to promoting bone” and the effect on bone ([1]; doses up to 100 ng/ml, administered continuously from 3 d.p.f to 9 d.p.f.) was “anabolic effect”.
